Where two headings read alike, the source gives them in different places. Where no end group is shown, it is not given here.
T1: Peptide-4 (cysteine pairing not given here; also: biotinylated, site not given here)
T1 peptide: VDFCKIYAWPICGS

T2: Peptide-5 (cysteine pairing not given here; also: biotinylated, site not given here)
T2 peptide: VDFCKLYNWPVCQT

T3: Peptide-8 (cysteine pairing not given here; also: biotinylated, site not given here)
T3 peptide: VDFCGLYHWPICYQ

T4: Peptide-10 (cysteine pairing not given here; also: biotinylated (site not given here))
T4 peptide: IDFCAIYQWPVCRS

T5: Peptide-13 (cysteine pairing not given here; also: biotinylated (site not given here))
T5 peptide: VDFCELYRWPICNS

T6: Peptide-18 (cysteine pairing not given here; also: biotinylated (site not given here))
T6 peptide: MDFCQIYDWPICRL

T7: Peptide-20 (cysteine pairing not given here; also: biotinylated (site not given here))
T7 peptide: VDFCSFYRWPICET

T8: Peptide-25 (cysteine pairing not given here; also: biotinylated (site not given here))
T8 peptide: VDFCKIYSWPVCHQ

T9: Peptide-26 (cysteine pairing not given here; also: biotinylated, site not given here)
T9 peptide: DNLICVKNLWCWIA

T10: Peptide-27 (cysteine pairing not given here; also: biotinylated, site not given here)
T10 peptide: FSLVCVRNLYCWNV

T11: Peptide-29 (cysteine pairing not given here; also: biotinylated, site not given here)
T11 peptide: SYLVCVKNVYCWTA

T12: Peptide-1 (cysteine pairing not given here; also: biotinylated (site not given here))
T12 peptide: IDFCAMYQWPICDT

T13: Peptide-3 (cysteine pairing not given here; also: biotinylated, site not given here)
T13 peptide: IDFCMLYNWPICAG

T14: Peptide-32 (cysteine pairing not given here; also: biotinylated, site not given here)
T14 peptide: PDFCYMYGWPICDS

T15: Peptide-33 (cysteine pairing not given here; also: biotinylated, site not given here)
T15 peptide: PDFCYMYNWPVCVT

T16: Peptide-35 (cysteine pairing not given here; also: biotinylated, site not given here)
T16 peptide: EDFCYWYQWPICSD

T17: Peptide-36 (cysteine pairing not given here; also: biotinylated, site not given here)
T17 peptide: VDFCYQYGWPICSR

T18: Peptide-37 (cysteine pairing not given here; also: biotinylated, site not given here)
T18 peptide: VDFCYLYNWPVCSK

T19: Peptide-38 (cysteine pairing not given here; also: biotinylated, site not given here)
T19 peptide: VDFCSIYHWPVCYV

T20: Peptide-39 (cysteine pairing not given here; also: biotinylated, site not given here)
T20 peptide: VDFCGLYHWPICYQVD

T21: Peptide-40 (cysteine pairing not given here; also: biotinylated, site not given here)
T21 peptide: VDFCYLYSWPICTK

T22: Peptide-41 (cysteine pairing not given here; also: biotinylated, site not given here)
T22 peptide: VDFCGLYHWPICYQVY

T23: Peptide-42 (cysteine pairing not given here; also: biotinylated, site not given here)
T23 peptide: IDFCAMYHWPICDT

T24: Peptide-43 (cysteine pairing not given here; also: biotinylated, site not given here)
T24 peptide: VDFCALYHWPICYQ

T25: Peptide-62 (cysteine pairing not given here; also: biotinylated, site not given here)
T25 peptide: IDFCAVYKWPVCQV

T26: Peptide-63 (cysteine pairing not given here; also: biotinylated, site not given here)
T26 peptide: IDFCLIYNWPVCDT

T27: Peptide-64 (cysteine pairing not given here; also: biotinylated, site not given here)
T27 peptide: PDFCAVYRWPICYQ

T28: Human TROP2 ECD (31-274 AA), biotinylated (human, UniProt P09758 31-274, biotinylated (site not stated))
T28 construct: captured on neutravidin plates; also called TROP2-biotin; Trop2-biotin
T28 sequence: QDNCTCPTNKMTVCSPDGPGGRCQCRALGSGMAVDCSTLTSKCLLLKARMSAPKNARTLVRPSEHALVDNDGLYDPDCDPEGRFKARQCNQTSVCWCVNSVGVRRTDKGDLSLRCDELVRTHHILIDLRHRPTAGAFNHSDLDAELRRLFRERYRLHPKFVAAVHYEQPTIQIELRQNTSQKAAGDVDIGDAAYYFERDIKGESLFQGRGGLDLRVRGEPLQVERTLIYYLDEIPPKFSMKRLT


Assays:
[1] = molecular target: T1, Peptide-4; test: ELISA, Fab on captured biotin-peptide
Procedure: (§1) Binding was measured in a standard ELISA format. […] Bound TBDs were detected using a standard horse radish peroxidase conjugate secondary antibody. The ELISA signal was plotted versus the log-scale concentration of TBD. The concentrations of TBD required to observe half maximal binding signal (EC₅₀s) were calculated using Graphpad Prism software.

[2] = molecular target: T2, Peptide-5; test: ELISA, Fab on captured biotin-peptide
Procedure: as §1

[3] = molecular target: T3, Peptide-8; test: ELISA, Fab on captured biotin-peptide
Procedure: as §1

[4] = molecular target: T4, Peptide-10; test: ELISA, Fab on captured biotin-peptide
Procedure: as §1

[5] = molecular target: T5, Peptide-13; test: ELISA, Fab on captured biotin-peptide
Procedure: as §1

[6] = molecular target: T6, Peptide-18; test: ELISA, Fab on captured biotin-peptide
Procedure: as §1

[7] = molecular target: T7, Peptide-20; test: ELISA, Fab on captured biotin-peptide
Procedure: as §1

[8] = molecular target: T8, Peptide-25; test: ELISA, Fab on captured biotin-peptide
Procedure: as §1

[9] = molecular target: T9, Peptide-26; test: ELISA, Fab on captured biotin-peptide
Procedure: as §1

[10] = molecular target: T10, Peptide-27; test: ELISA, Fab on captured biotin-peptide
Procedure: as §1

[11] = molecular target: T11, Peptide-29; test: ELISA, Fab on captured biotin-peptide
Procedure: as §1

[12] = molecular target: T12, Peptide-1; test: ELISA, Fab on captured biotin-peptide
Procedure: as §1

[13] = molecular target: T13, Peptide-3; test: ELISA, Fab on captured biotin-peptide
Procedure: as §1

[14] = molecular target: T3, Peptide-8; test: ELISA, Fab on captured biotin-peptide
Procedure: as §1

[15] = molecular target: T8, Peptide-25; test: ELISA, Fab on captured biotin-peptide
Procedure: as §1

[16] = molecular target: T14, Peptide-32; test: ELISA, Fab on captured biotin-peptide
Procedure: as §1

[17] = molecular target: T15, Peptide-33; test: ELISA, Fab on captured biotin-peptide
Procedure: as §1

[18] = molecular target: T16, Peptide-35; test: ELISA, Fab on captured biotin-peptide
Procedure: as §1

[19] = molecular target: T17, Peptide-36; test: ELISA, Fab on captured biotin-peptide
Procedure: as §1

[20] = molecular target: T18, Peptide-37; test: ELISA, Fab on captured biotin-peptide
Procedure: as §1

[21] = molecular target: T19, Peptide-38; test: ELISA, Fab on captured biotin-peptide
Procedure: as §1

[22] = molecular target: T20, Peptide-39; test: ELISA, Fab on captured biotin-peptide
Procedure: as §1

[23] = molecular target: T21, Peptide-40; test: ELISA, Fab on captured biotin-peptide
Procedure: as §1

[24] = molecular target: T22, Peptide-41; test: ELISA, Fab on captured biotin-peptide
Procedure: as §1

[25] = molecular target: T23, Peptide-42; test: ELISA, Fab on captured biotin-peptide
Procedure: as §1

[26] = molecular target: T24, Peptide-43; test: ELISA, Fab on captured biotin-peptide
Procedure: as §1

[27] = molecular target: T25, Peptide-62; test: ELISA, Fab on captured biotin-peptide
Procedure: as §1

[28] = molecular target: T26, Peptide-63; test: ELISA, Fab on captured biotin-peptide
Procedure: as §1

[29] = molecular target: T27, Peptide-64; test: ELISA, Fab on captured biotin-peptide
Procedure: as §1

[30] = molecular target: T28, Human TROP2 ECD (31-274 AA), …; test: ELISA, Fab on captured biotin-TROP2

Binder | EC50 [1] | EC50 [2] | EC50 [3] | EC50 [4] | EC50 [5] | EC50 [6] | EC50 [8] | EC50 [12] | EC50 [13] | EC50 [14] | EC50 [16] | EC50 [17] | EC50 [19] | EC50 [20] | EC50 [21] | EC50 [22] | EC50 [23] | EC50 [24] | EC50 [25] | EC50 [26] | further results
TBD-1 wt (Fab, V domains shown, Fab; the heavy chain entry is VH-CH1; also called wild-type anti-TROP2 Fab (hRS7); TROP2 Fab) VH: QVQLQQSGSELKKPGASVKVSCKASGYTFTNYGMNWVKQAPGQGLKWMGWINTYTGEPTYTDDFKGRFAFSLDTSVSTAYLQISSLKADDTAVYFCARGGFGSSYWYFDVWGQGSLVTVSS VL: DIQLTQSPSSLSASVGDRVSITCKASQDVSIAVAWYQQKPGKAPKLLIYSASYRYTGVPDRFSGSGSGTDFTLTISSLQPEDFAVYYCQQHYITPLTFGAGTKVEIKR | 9.2 nM | 16.5 nM | 40.2 nM | 62.6 nM | 157 nM | 474 nM | 48.2 nM | 22.5 nM | 164 nM | 35.2 nM | 34.6 nM | 29.7 nM | 41.4 nM | 31.7 nM | 178 nM | 95.2 nM | 39.7 nM | 102 nM | 28.5 nM | 27.5 nM | EC50 [7]: 600 nM; EC50 [9]: 85 nM; EC50 [10]: 23.9 nM; EC50 [11]: 6.7 nM; EC50 [15]: 217 nM; EC50 [18]: 261 nM; EC50 [27]: 81.4 nM; EC50 [28]: 162 nM; EC50 [29]: 28.3 nM
TBD-11 (HC R98A) (Fab, V domains shown, Fab; also called HC R98A mutant) VH: QVQLQQSGSELKKPGASVKVSCKASGYTFTNYGMNWVKQAPGQGLKWMGWINTYTGEPTYTDDFKGRFAFSLDTSVSTAYLQISSLKADDTAVYFCAAGGFGSSYWYFDVWGQGSLVTVSS VL: DIQLTQSPSSLSASVGDRVSITCKASQDVSIAVAWYQQKPGKAPKLLIYSASYRYTGVPDRFSGSGSGTDFTLTISSLQPEDFAVYYCQQHYITPLTFGAGTKVEIKR | 179 nM | 232 nM | 156 nM | 272 nM | 388 nM | 298 nM | > 1000 nM | 292 nM | 296 nM | 86.4 nM | 87.7 nM | 144 nM | 60.1 nM | 149 nM | 290 nM | 151 nM | 310 nM | 159 nM | 86.4 nM | 77.5 nM | EC50 [30]: 3.4 nM; EC50 [27]: 136 nM; EC50 [28]: 229 nM; EC50 [29]: 61.7 nM

The remaining binders from weak to strong by EC50 [1], led by results:

EC50 [1] | EC50 [2] | EC50 [3] | EC50 [4] | EC50 [5] | EC50 [6] | EC50 [8] | EC50 [12] | EC50 [13] | EC50 [14] | EC50 [16] | EC50 [17] | EC50 [19] | EC50 [20] | EC50 [21] | EC50 [22] | EC50 [23] | EC50 [24] | EC50 [25] | EC50 [26] | Binder | further results
15.3 nM | 9.9 nM | 18.8 nM | 8.5 nM | 21.4 nM | 83.2 nM | 38.3 nM | 14.8 nM | 18.3 nM | 8.5 nM | 20.1 nM | 9.6 nM | 23.8 nM | 9.3 nM | 9.8 nM | 32.1 nM | 30.4 nM | 41 nM | 5.7 nM | 7.2 nM | TBD-6 (LC I93A) (Fab, V domains shown, Fab; also called LC I93A mutant) VH: QVQLQQSGSELKKPGASVKVSCKASGYTFTNYGMNWVKQAPGQGLKWMGWINTYTGEPTYTDDFKGRFAFSLDTSVSTAYLQISSLKADDTAVYFCARGGFGSSYWYFDVWGQGSLVTVSS VL: DIQLTQSPSSLSASVGDRVSITCKASQDVSIAVAWYQQKPGKAPKLLIYSASYRYTGVPDRFSGSGSGTDFTLTISSLQPEDFAVYYCQQHYATPLTFGAGTKVEIKR | EC50 [30]: 0.3 nM; EC50 [7]: 140 nM; EC50 [10]: 178 nM; EC50 [11]: 43.8 nM; EC50 [15]: 10.9 nM; EC50 [18]: 131 nM; EC50 [27]: 5.1 nM; EC50 [28]: 9.5 nM; EC50 [29]: 6.4 nM
12.7 nM | 15.6 nM | 13 nM | 15.2 nM | 22.6 nM | 38 nM | 48.4 nM | 13.5 nM | 30.8 nM | 12.9 nM | 27.1 nM | 22.9 nM | 27 nM | 27.3 nM | 26.1 nM | 32.7 nM | 45.8 nM | 47.2 nM | 13.8 nM | 12 nM | TBD-21 (HC F108A) (Fab, V domains shown, Fab; also called HC F108A mutant) VH: QVQLQQSGSELKKPGASVKVSCKASGYTFTNYGMNWVKQAPGQGLKWMGWINTYTGEPTYTDDFKGRFAFSLDTSVSTAYLQISSLKADDTAVYFCARGGFGSSYWYADVWGQGSLVTVSS VL: DIQLTQSPSSLSASVGDRVSITCKASQDVSIAVAWYQQKPGKAPKLLIYSASYRYTGVPDRFSGSGSGTDFTLTISSLQPEDFAVYYCQQHYITPLTFGAGTKVEIKR | EC50 [30]: 4.2 nM; EC50 [7]: 89 nM; EC50 [9]: 390 nM; EC50 [10]: 149 nM; EC50 [11]: 23.4 nM; EC50 [15]: 42.3 nM; EC50 [18]: 331 nM; EC50 [27]: 14.3 nM; EC50 [28]: 39.7 nM; EC50 [29]: 11 nM
6.5 nM | 5.4 nM | 8.2 nM | 6.5 nM | 10 nM | 36.7 nM | 38.8 nM | 7.3 nM | 23 nM | 8 nM | 35.1 nM | 24.1 nM | 30.2 nM | 19.5 nM | 31.8 nM | 16.4 nM | 27 nM | 28.9 nM | 5.5 nM | 4.9 nM | TBD-17 (HC S104A) (Fab, V domains shown, Fab; also called HC S104A mutant) VH: QVQLQQSGSELKKPGASVKVSCKASGYTFTNYGMNWVKQAPGQGLKWMGWINTYTGEPTYTDDFKGRFAFSLDTSVSTAYLQISSLKADDTAVYFCARGGFGSAYWYFDVWGQGSLVTVSS VL: DIQLTQSPSSLSASVGDRVSITCKASQDVSIAVAWYQQKPGKAPKLLIYSASYRYTGVPDRFSGSGSGTDFTLTISSLQPEDFAVYYCQQHYITPLTFGAGTKVEIKR | EC50 [30]: 0.3 nM; EC50 [7]: 115 nM; EC50 [9]: 379 nM; EC50 [10]: 107 nM; EC50 [11]: 24.8 nM; EC50 [15]: 35 nM; EC50 [18]: 215 nM; EC50 [27]: 9.2 nM; EC50 [28]: 30 nM; EC50 [29]: 3.8 nM

— patent publication US20230357429A1 (JANUX THERAPEUTICS, published 2023)
